Measured values taken from publication PMC7925532.

Biological target: EGFR Kinase Domain Duplication (EGFR-KDD), eGFP or mCherry fusion (human) (UniProt P00533)
Experiment: PIE-FCCS (pulsed interleaved excitation fluorescence cross-correlation spectroscopy); live COS-7 cells co-expressing eGFP and mCherry fusions (1:1 plasmids), peripheral membrane, 37 °C, Opti-MEM; stimulated with 2 μg/mL recombinant human EGF; median fraction correlated (ƒc)

For “EGFR Kinase Domain Duplication (EGFR-KDD), eGFP or mCherry fusion (from UniProt P00533 25-1038; P00533 688-1210) (receptor)”, which median cross-correlation value (ƒc) is on record?
Its median cross-correlation value (ƒc) is 0.17.
